From paper PMC5019145 (Molecular microbiology, 2015)

Assays:
SaFlaH [1] = biological target: SaFlaH (Sulfolobus acidocaldarius, UniProt Q4J9K9, D122N); assay: fluorescence titration; format: binding; conditions: 1 µM protein, 5 mM MnCl2, pH 6.2, 25 °C; labelled compound
SaFlaH [2] = biological target: SaFlaH (Sulfolobus acidocaldarius, UniProt Q4J9K9, K33A); assay: fluorescence titration; format: binding; conditions: 1 µM protein, 5 mM MnCl2, pH 6.2, 25 °C; labelled compound
[3] = biological target: Pyrococcus furiosus FlaH, wild type (PfFlaH) (Pyrococcus furiosus); assay: MST
[4] = biological target: T1, StrepII-tagged Sulfolobus acidocaldarius FlaH (StrepII-FlaH) (Sulfolobus acidocaldarius, UniProt Q4J9K9 1-228); assay: pull-down
T1 sequence: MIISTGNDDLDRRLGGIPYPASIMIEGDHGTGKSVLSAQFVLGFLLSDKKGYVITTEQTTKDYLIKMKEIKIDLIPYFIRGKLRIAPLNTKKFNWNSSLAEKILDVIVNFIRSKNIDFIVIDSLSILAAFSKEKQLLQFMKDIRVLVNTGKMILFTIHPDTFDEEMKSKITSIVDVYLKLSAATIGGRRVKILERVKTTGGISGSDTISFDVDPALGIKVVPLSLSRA

Chain of SaFlaH (Sulfolobus acidocaldarius, UniProt Q4J9K9, D122N) (Q4J9K9 whole entry D122N): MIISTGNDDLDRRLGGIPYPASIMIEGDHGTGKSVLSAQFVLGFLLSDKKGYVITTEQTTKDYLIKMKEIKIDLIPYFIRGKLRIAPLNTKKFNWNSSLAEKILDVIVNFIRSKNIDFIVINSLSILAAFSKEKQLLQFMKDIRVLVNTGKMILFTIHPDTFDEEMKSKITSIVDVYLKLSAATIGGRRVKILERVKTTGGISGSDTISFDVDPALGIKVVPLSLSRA
Chain of SaFlaH (Sulfolobus acidocaldarius, UniProt Q4J9K9, K33A) (Q4J9K9 whole entry K33A): as the sequence (Q4J9K9 whole entry D122N) above, with K33A, N122D counted along it

Question: For `CNc1ccccc1C(=O)O[C@H]1[C@@H](O)[C@H](n2cnc3c(N)ncnc32)O[C@@H]1COP(=O)(O)OP(=O)(O)OP(=O)(O)O` (mixture of isomers) [MANT-ATP, 2’-/3’-O-(N’-methylanthraniloyl) adenosine-5’-O-triphosphate], which “fluorescence titration (FRET from tryptophan to MANT)” value (SaFlaH [1]) is on record?
Answer: Its value is “SaFlaH^K33A and SaFlaH^D122N only bound MANT-ATP with strongly reduced affinity”.

Question: And the “fluorescence titration (FRET from tryptophan to MANT)” value (SaFlaH [2])?
Answer: Its value is “SaFlaH^K33A and SaFlaH^D122N only bound MANT-ATP with strongly reduced affinity”.

Question: How did the Kd [3] turn out when “Pyrococcus furiosus FlaI (PfFlaI) (enzyme)” was run?
Answer: Its Kd is 1000 nM.

B1: His6-tagged Sulfolobus acidocaldarius FlaXc (FlaX without its first 37 residues) (domain or fragment, UniProt Q4J9K6 38-250, looked up)
chain: KRVQTQQSPQNISQEQRFPTQQKPANDETSKYSSDSIEKALKDVLGKMDKKENELLTNITNSFNEMKKLIENLNSAVEELALSVKASESDSSSPFNTIIQQEEEHVSREISTVSQLVGSNNPNNVNLTWFIKSCVLLEIMEYDEEKIKQLYELGYVSSDDMFTILRILSFIKNRKITAKELASIAANIAESYSSLTPEIKKYIMILEGGGVNG
Question: Does B1 bind [4]?
Answer: Result: binds

B2: His6-tagged Sulfolobus acidocaldarius FlaXcc1 (FlaXc without the N-terminal domain 38-86) (domain or fragment, UniProt Q4J9K6 87-250, looked up)
chain: KKENELLTNITNSFNEMKKLIENLNSAVEELALSVKASESDSSSPFNTIIQQEEEHVSREISTVSQLVGSNNPNNVNLTWFIKSCVLLEIMEYDEEKIKQLYELGYVSSDDMFTILRILSFIKNRKITAKELASIAANIAESYSSLTPEIKKYIMILEGGGVNG
Question: Does B2 bind [4]?
Answer: Result: binds
